{"source": "patent US8748182B2", "about": "“Mutant proteins and methods for producing them” (Heptares Therapeutics Limited, priority 2007, dated 2014)", "data": [{"experiment": "Thermostability of solubilised adenosine A2a receptor and mutants (radioligand binding after or during heating)", "assay_type": "physicochemical", "details": "Ligand(−) format, binding after the heating step", "from_the_text": "FIG. 12 Flow chart showing the two different assay formats of ligand (+) and ligand (−) used to determine receptor thermostablity.\n• 1. 315 site-directed mutants made between residues 2-316 of A2aR. • 2. All of these mutants have been assayed for thermostability using an assay measuring agonist and antagonist binding after the heating step (Ligand(−) format as described in FIG. 12). • a. […] Mutations have been combined to generate mutants in a putative antagonist conformation. Wildtype A2aR has a Tm of 31° C. with ZM241385 bound. • a. Rant17 A54L+K122A+L235A Tm 48° C. (ZM241385 bound) • b. Rant19 A54L,T88A,V239A+A204L Tm 47° C. (ZM241385 bound) • c. Rant21 A54L,T88A,V239A+K122A Tm 49° C. (ZM241385 bound) • 4. Mutations from the agonist screen have been combined, but have led to only a very low level of improvement in Tm of +2° C.", "values": [{"molecule": "N284A: A2aR point mutant (protein, UniProt P29274 1-412, looked up, variant N284A) Adenosine receptor A2a: MPIMGSSVYITVELAIAVLAILGNVLVCWAVWLNSNLQNVTNYFVVSLAAADIAVGVLAIPFAITISTGFCAACHGCLFIACFVLVLTQSSIFSLLAIAIDRYIAIRIPLRYNGLVTGTRAKGIIAICWVLSFAIGLTPMLGWNNCGQPKEGKNHSQGCGEGQVACLFEDVVPMNYMVYFNFFACVLVPLLLMLGVYLRIFLAARRQLKQMESQPLPGERARSTLQKEVHAAKSLAIIVGLFALCWLPLHIINCFTFFCPDCSHAPLWLMYLAIVLSHTNSVVAPFIYAYRIREFRQTFRKIIRSHVLRQQEPFKAAGTSARVLAAHGSDGEQVSLRLNGHPPGVWANGSAPHPERRPNGYALGLVSGGSAQESQGNTGLPDVELLSHELKGVCPEPPGLDDPLAQDGAGVS", "thermostability measured with 3H-NECA (agonist)": "improved thermostability"}, {"molecule": "Q311A: A2aR point mutant (protein, UniProt P29274 1-412, looked up, variant Q311A) Adenosine receptor A2a: MPIMGSSVYITVELAIAVLAILGNVLVCWAVWLNSNLQNVTNYFVVSLAAADIAVGVLAIPFAITISTGFCAACHGCLFIACFVLVLTQSSIFSLLAIAIDRYIAIRIPLRYNGLVTGTRAKGIIAICWVLSFAIGLTPMLGWNNCGQPKEGKNHSQGCGEGQVACLFEDVVPMNYMVYFNFFACVLVPLLLMLGVYLRIFLAARRQLKQMESQPLPGERARSTLQKEVHAAKSLAIIVGLFALCWLPLHIINCFTFFCPDCSHAPLWLMYLAIVLSHTNSVVNPFIYAYRIREFRQTFRKIIRSHVLRQAEPFKAAGTSARVLAAHGSDGEQVSLRLNGHPPGVWANGSAPHPERRPNGYALGLVSGGSAQESQGNTGLPDVELLSHELKGVCPEPPGLDDPLAQDGAGVS", "thermostability measured with 3H-NECA (agonist)": "improved thermostability"}, {"molecule": "P313A: A2aR point mutant (protein, UniProt P29274 1-412, looked up, variant P313A) Adenosine receptor A2a: MPIMGSSVYITVELAIAVLAILGNVLVCWAVWLNSNLQNVTNYFVVSLAAADIAVGVLAIPFAITISTGFCAACHGCLFIACFVLVLTQSSIFSLLAIAIDRYIAIRIPLRYNGLVTGTRAKGIIAICWVLSFAIGLTPMLGWNNCGQPKEGKNHSQGCGEGQVACLFEDVVPMNYMVYFNFFACVLVPLLLMLGVYLRIFLAARRQLKQMESQPLPGERARSTLQKEVHAAKSLAIIVGLFALCWLPLHIINCFTFFCPDCSHAPLWLMYLAIVLSHTNSVVNPFIYAYRIREFRQTFRKIIRSHVLRQQEAFKAAGTSARVLAAHGSDGEQVSLRLNGHPPGVWANGSAPHPERRPNGYALGLVSGGSAQESQGNTGLPDVELLSHELKGVCPEPPGLDDPLAQDGAGVS", "thermostability measured with 3H-NECA (agonist)": "improved thermostability"}, {"molecule": "K315A: A2aR point mutant (protein, UniProt P29274 1-412, looked up, variant K315A) Adenosine receptor A2a: MPIMGSSVYITVELAIAVLAILGNVLVCWAVWLNSNLQNVTNYFVVSLAAADIAVGVLAIPFAITISTGFCAACHGCLFIACFVLVLTQSSIFSLLAIAIDRYIAIRIPLRYNGLVTGTRAKGIIAICWVLSFAIGLTPMLGWNNCGQPKEGKNHSQGCGEGQVACLFEDVVPMNYMVYFNFFACVLVPLLLMLGVYLRIFLAARRQLKQMESQPLPGERARSTLQKEVHAAKSLAIIVGLFALCWLPLHIINCFTFFCPDCSHAPLWLMYLAIVLSHTNSVVNPFIYAYRIREFRQTFRKIIRSHVLRQQEPFAAAGTSARVLAAHGSDGEQVSLRLNGHPPGVWANGSAPHPERRPNGYALGLVSGGSAQESQGNTGLPDVELLSHELKGVCPEPPGLDDPLAQDGAGVS", "thermostability measured with 3H-NECA (agonist)": "improved thermostability"}, {"molecule": "A54L: A2aR point mutant (protein, UniProt P29274 1-412, looked up, variant A54L) Adenosine receptor A2a: MPIMGSSVYITVELAIAVLAILGNVLVCWAVWLNSNLQNVTNYFVVSLAAADILVGVLAIPFAITISTGFCAACHGCLFIACFVLVLTQSSIFSLLAIAIDRYIAIRIPLRYNGLVTGTRAKGIIAICWVLSFAIGLTPMLGWNNCGQPKEGKNHSQGCGEGQVACLFEDVVPMNYMVYFNFFACVLVPLLLMLGVYLRIFLAARRQLKQMESQPLPGERARSTLQKEVHAAKSLAIIVGLFALCWLPLHIINCFTFFCPDCSHAPLWLMYLAIVLSHTNSVVNPFIYAYRIREFRQTFRKIIRSHVLRQQEPFKAAGTSARVLAAHGSDGEQVSLRLNGHPPGVWANGSAPHPERRPNGYALGLVSGGSAQESQGNTGLPDVELLSHELKGVCPEPPGLDDPLAQDGAGVS", "thermostability assayed with 3H-ZM241385 (antagonist)": "improved thermostability"}, {"molecule": "V57A: A2aR point mutant (protein, UniProt P29274 1-412, looked up, variant V57A) Adenosine receptor A2a: MPIMGSSVYITVELAIAVLAILGNVLVCWAVWLNSNLQNVTNYFVVSLAAADIAVGALAIPFAITISTGFCAACHGCLFIACFVLVLTQSSIFSLLAIAIDRYIAIRIPLRYNGLVTGTRAKGIIAICWVLSFAIGLTPMLGWNNCGQPKEGKNHSQGCGEGQVACLFEDVVPMNYMVYFNFFACVLVPLLLMLGVYLRIFLAARRQLKQMESQPLPGERARSTLQKEVHAAKSLAIIVGLFALCWLPLHIINCFTFFCPDCSHAPLWLMYLAIVLSHTNSVVNPFIYAYRIREFRQTFRKIIRSHVLRQQEPFKAAGTSARVLAAHGSDGEQVSLRLNGHPPGVWANGSAPHPERRPNGYALGLVSGGSAQESQGNTGLPDVELLSHELKGVCPEPPGLDDPLAQDGAGVS", "thermostability assayed with 3H-ZM241385 (antagonist)": "improved thermostability"}, {"molecule": "H75A: A2aR point mutant (protein, UniProt P29274 1-412, looked up, variant H75A) Adenosine receptor A2a: MPIMGSSVYITVELAIAVLAILGNVLVCWAVWLNSNLQNVTNYFVVSLAAADIAVGVLAIPFAITISTGFCAACAGCLFIACFVLVLTQSSIFSLLAIAIDRYIAIRIPLRYNGLVTGTRAKGIIAICWVLSFAIGLTPMLGWNNCGQPKEGKNHSQGCGEGQVACLFEDVVPMNYMVYFNFFACVLVPLLLMLGVYLRIFLAARRQLKQMESQPLPGERARSTLQKEVHAAKSLAIIVGLFALCWLPLHIINCFTFFCPDCSHAPLWLMYLAIVLSHTNSVVNPFIYAYRIREFRQTFRKIIRSHVLRQQEPFKAAGTSARVLAAHGSDGEQVSLRLNGHPPGVWANGSAPHPERRPNGYALGLVSGGSAQESQGNTGLPDVELLSHELKGVCPEPPGLDDPLAQDGAGVS", "thermostability assayed with 3H-ZM241385 (antagonist)": "improved thermostability"}, {"molecule": "G118A: A2aR point mutant (protein, UniProt P29274 1-412, looked up, variant G118A) Adenosine receptor A2a: MPIMGSSVYITVELAIAVLAILGNVLVCWAVWLNSNLQNVTNYFVVSLAAADIAVGVLAIPFAITISTGFCAACHGCLFIACFVLVLTQSSIFSLLAIAIDRYIAIRIPLRYNGLVTATRAKGIIAICWVLSFAIGLTPMLGWNNCGQPKEGKNHSQGCGEGQVACLFEDVVPMNYMVYFNFFACVLVPLLLMLGVYLRIFLAARRQLKQMESQPLPGERARSTLQKEVHAAKSLAIIVGLFALCWLPLHIINCFTFFCPDCSHAPLWLMYLAIVLSHTNSVVNPFIYAYRIREFRQTFRKIIRSHVLRQQEPFKAAGTSARVLAAHGSDGEQVSLRLNGHPPGVWANGSAPHPERRPNGYALGLVSGGSAQESQGNTGLPDVELLSHELKGVCPEPPGLDDPLAQDGAGVS", "thermostability assayed with 3H-ZM241385 (antagonist)": "improved thermostability", "thermostability measured with 3H-NECA (agonist)": "improved thermostability"}, {"molecule": "T88A: A2aR point mutant (protein, UniProt P29274 1-412, looked up, variant T88A) Adenosine receptor A2a: MPIMGSSVYITVELAIAVLAILGNVLVCWAVWLNSNLQNVTNYFVVSLAAADIAVGVLAIPFAITISTGFCAACHGCLFIACFVLVLAQSSIFSLLAIAIDRYIAIRIPLRYNGLVTGTRAKGIIAICWVLSFAIGLTPMLGWNNCGQPKEGKNHSQGCGEGQVACLFEDVVPMNYMVYFNFFACVLVPLLLMLGVYLRIFLAARRQLKQMESQPLPGERARSTLQKEVHAAKSLAIIVGLFALCWLPLHIINCFTFFCPDCSHAPLWLMYLAIVLSHTNSVVNPFIYAYRIREFRQTFRKIIRSHVLRQQEPFKAAGTSARVLAAHGSDGEQVSLRLNGHPPGVWANGSAPHPERRPNGYALGLVSGGSAQESQGNTGLPDVELLSHELKGVCPEPPGLDDPLAQDGAGVS", "thermostability assayed with 3H-ZM241385 (antagonist)": "improved thermostability"}, {"molecule": "T119A: A2aR point mutant (protein, UniProt P29274 1-412, looked up, variant T119A) Adenosine receptor A2a: MPIMGSSVYITVELAIAVLAILGNVLVCWAVWLNSNLQNVTNYFVVSLAAADIAVGVLAIPFAITISTGFCAACHGCLFIACFVLVLTQSSIFSLLAIAIDRYIAIRIPLRYNGLVTGARAKGIIAICWVLSFAIGLTPMLGWNNCGQPKEGKNHSQGCGEGQVACLFEDVVPMNYMVYFNFFACVLVPLLLMLGVYLRIFLAARRQLKQMESQPLPGERARSTLQKEVHAAKSLAIIVGLFALCWLPLHIINCFTFFCPDCSHAPLWLMYLAIVLSHTNSVVNPFIYAYRIREFRQTFRKIIRSHVLRQQEPFKAAGTSARVLAAHGSDGEQVSLRLNGHPPGVWANGSAPHPERRPNGYALGLVSGGSAQESQGNTGLPDVELLSHELKGVCPEPPGLDDPLAQDGAGVS", "thermostability assayed with 3H-ZM241385 (antagonist)": "improved thermostability"}, {"molecule": "K122A: A2aR point mutant (protein, UniProt P29274 1-412, looked up, variant K122A) Adenosine receptor A2a: MPIMGSSVYITVELAIAVLAILGNVLVCWAVWLNSNLQNVTNYFVVSLAAADIAVGVLAIPFAITISTGFCAACHGCLFIACFVLVLTQSSIFSLLAIAIDRYIAIRIPLRYNGLVTGTRAAGIIAICWVLSFAIGLTPMLGWNNCGQPKEGKNHSQGCGEGQVACLFEDVVPMNYMVYFNFFACVLVPLLLMLGVYLRIFLAARRQLKQMESQPLPGERARSTLQKEVHAAKSLAIIVGLFALCWLPLHIINCFTFFCPDCSHAPLWLMYLAIVLSHTNSVVNPFIYAYRIREFRQTFRKIIRSHVLRQQEPFKAAGTSARVLAAHGSDGEQVSLRLNGHPPGVWANGSAPHPERRPNGYALGLVSGGSAQESQGNTGLPDVELLSHELKGVCPEPPGLDDPLAQDGAGVS", "thermostability assayed with 3H-ZM241385 (antagonist)": "improved thermostability"}]}]}
